Results: patent US20250269048A1 (BIVICTRIX, published 2025)
Where two headings read alike, the source gives them in different places.

Tests used:
[1] = biological target: T1, human CD7 on cells (human, UniProt P09564 26-240); assay: FACS; reference 7-PP-1 WT (itself)
T1 construct: whole, on cells; Target of the FACS and cell capture values and of the kill assays on CD7 single positive cells; also called CD7+ cells; Jurkat (CD33-/CD7+)
T1 sequence (looked up): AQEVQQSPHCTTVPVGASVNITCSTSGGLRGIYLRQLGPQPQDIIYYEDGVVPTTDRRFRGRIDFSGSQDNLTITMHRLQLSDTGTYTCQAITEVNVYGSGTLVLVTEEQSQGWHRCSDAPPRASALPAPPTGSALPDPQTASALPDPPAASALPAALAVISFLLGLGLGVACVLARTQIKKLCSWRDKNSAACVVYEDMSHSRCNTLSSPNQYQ

[2] = biological target: T2, human CD7 (human, UniProt P09564 26-180, limits assumed); assay: SPR
T2 construct: The construct is not described
T2 sequence (looked up): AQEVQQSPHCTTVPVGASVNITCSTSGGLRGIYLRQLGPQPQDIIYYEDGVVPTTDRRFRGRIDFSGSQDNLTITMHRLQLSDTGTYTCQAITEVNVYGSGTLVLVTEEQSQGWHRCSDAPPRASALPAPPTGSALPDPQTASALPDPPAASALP

[3] = biological target: T1, human CD7 on cells; assay: FACS; cells not named
[4] = biological target: T2, human CD7; assay: SPR; reference 7-AA-WT
[5] = biological target: T1, human CD7 on cells; assay: FACS; reference 7-PP-1 WT
[6] = biological target: T2, human CD7; assay: SPR; reference 7-PP-1 WT
[7] = biological target: T1, human CD7 on cells; assay: cell capt. exp.; set-up: unit not given here
[8] = biological target: T3, human CD33 (human, UniProt P20138 18-259, limits assumed); assay: SPR (Kd); value of the CD33 arm 33-PP-1 WT
T3 construct: The construct is not described

[9] = biological target: T2, human CD7; assay: SPR (Kd); value of the CD7 arm 7-PP-2
[10] = biological target: T2, human CD7; assay: SPR (Kd); value of the CD7 arm 7-PP-3
[11] = biological target: T2, human CD7; assay: SPR (Kd); value of the CD7 arm 7-PP-6
[12] = biological target: T2, human CD7; assay: SPR (Kd); value of the CD7 arm 7-PP-7

T3 sequence (P20138 18-259 limits assumed): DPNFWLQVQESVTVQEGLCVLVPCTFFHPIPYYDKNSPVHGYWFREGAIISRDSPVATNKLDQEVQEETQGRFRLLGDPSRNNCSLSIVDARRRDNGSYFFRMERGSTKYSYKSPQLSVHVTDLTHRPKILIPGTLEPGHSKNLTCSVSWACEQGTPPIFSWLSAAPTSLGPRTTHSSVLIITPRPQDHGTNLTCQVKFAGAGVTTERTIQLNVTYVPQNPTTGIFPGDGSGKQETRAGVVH

| Binder | Kd [2] | FACS binding [3] | Fold Reduction in binding affinity compared to WT (Kd) [4] | Fold reduction in binding affinity vs 33-PP-1 WT [8] | also measured |
| --- | --- | --- | --- | --- | --- |
| CD7-PP-1-WT CD7 binding arm (Fab, V domains shown, also called PP WT) VH: QVQLQESGAELVKPGASVKLSCKASGYTFTSYWMHWVKQRPGQGLEWIGKINPSNGRTNYNEKFKSKATLTVDKSSSTAYMQLSSLTSEDSAVYYCARGGVYYDLYYYALDYWGQGTTVTVSS VL: DIELTQSPATLSVTPGDSVSLSCRASQSISNNLHWYQQKSHESPRLLIKSASQSISGIPSRFSGSGSGTDFTLSINSVETEDFGMYFCQQSNSWPYTFGGGTKLEIKR | 3.56 nM | 0.53 | 1.36 fold |  | FACS fold reduction compared to PP WT [1]: 1 fold |
| CD7-PP-13 CD7 binding arm (Fab, V domains shown, Heavy chain CDR3 Tyr108Ala; also called 7-PP-13 (mut_17-AA-1)) VH: QVQLQESGAELVKPGASVKLSCKASGYTFTSYWMHWVKQRPGQGLEWIGKINPSNGRTNYNEKFKSKATLTVDKSSSTAYMQLSSLTSEDSAVYYCARGGVYYDLYYAALDYWGQGTTVTVSS VL: DIELTQSPATLSVTPGDSVSLSCRASQSISNNLHWYQQKSHESPRLLIKSASQSISGIPSRFSGSGSGTDFTLSINSVETEDFGMYFCQQSNSWPYTFGGGTKLEIKR | 44.5 nM | 28.4 | 17 fold |  | FACS fold reduction compared to PP WT [5]: 53.2 fold; Fold Reduction in binding affinity compared to PP WT (Kd) [6]: 20.3 fold; Kd ([2]; record 2): 72.2 nM; Affinity from cell capt. exp. [7]: 46; Fold Reduction in binding affinity compared to WT (Kd) ([4]; record 2): 27.5 fold |
| BVX110 (bispecific antibody, bi-Fab; also called CD33-PP-1 WT/CD7-PP-2) heavy: QVQLQESGAELVKPGASVKLSCKASGYTFTSYWMHWVKQRPGQGLEWIGKINPSNGGTNYNEKFKSKATLTVDKSSSTAYMQLSSLTSEDSAVYYCARGGVYYDLYYYALDYWGQGTTVTVSSASTKGPSVFPLAPSSKSTSGGTAALGCLVKDYFPEPVTVSWNSGALTSGVHTFPAVLQSSGLYSLSSVVTVPSSSLGTQTYCCNVNHKPSNTKVDKKVEPKSCDKT light: DIELTQSPATLSVTPGDSVSLSCRASQSISNNLHWYQQKSHESPRLLIKSASQSISGIPSRFSGSGSGTDFTLSINSVETEDFGMYFCQQSNSWPYTFGGGTKLEIKRTVAAPSVFIFPPSDEQLKSGTASVVCLLNNFYPREAKVQWKVDNALQSGNSQESVTEQDSKDSTYSLSSTLTLSKADYEKHKVYACEVTHQGLSSPVTKSFNRGEC VH: EVQLVQSGAEVKKPGSSVKVSCKASGYTITDSNIHWVRQAPGQSLEWIGYIYPYNGGTDYNQKFKNRATLTVDNPTNTAYMELSSLRSEDTAFYYCVNGNPWLAYWGQGTLVTVSS VL: DIQLTQSPSTLSASVGDRVTIICRASESLDNYGIRFLTWFQQKPGKAPKLLMYAASNQGSGVPSRFSGSGSGTEFTLTISSLQPDDFATYYCQQTKEVPWSFGQGTKLEIK |  |  |  | 0 fold | Fold reduction in binding affinity vs 7-PP-1 WT [9]: 21.3 fold |
| BVX120 (bispecific antibody, bi-Fab; also called CD33-PP-1 WT/CD7-PP-3) heavy: QVQLQESGAELVKPGASVKLSCKASGYTFTSYWMHWVKQRPGQGLEWIGKINPSNGKTNYNEKFKSKATLTVDKSSSTAYMQLSSLTSEDSAVYYCARGGVYYDLYYYALDYWGQGTTVTVSSASTKGPSVFPLAPSSKSTSGGTAALGCLVKDYFPEPVTVSWNSGALTSGVHTFPAVLQSSGLYSLSSVVTVPSSSLGTQTYCCNVNHKPSNTKVDKKVEPKSCDKT light: DIELTQSPATLSVTPGDSVSLSCRASQSISNNLHWYQQKSHESPRLLIKSASQSISGIPSRFSGSGSGTDFTLSINSVETEDFGMYFCQQSNSWPYTFGGGTKLEIKRTVAAPSVFIFPPSDEQLKSGTASVVCLLNNFYPREAKVQWKVDNALQSGNSQESVTEQDSKDSTYSLSSTLTLSKADYEKHKVYACEVTHQGLSSPVTKSFNRGEC VH: EVQLVQSGAEVKKPGSSVKVSCKASGYTITDSNIHWVRQAPGQSLEWIGYIYPYNGGTDYNQKFKNRATLTVDNPTNTAYMELSSLRSEDTAFYYCVNGNPWLAYWGQGTLVTVSS VL: DIQLTQSPSTLSASVGDRVTIICRASESLDNYGIRFLTWFQQKPGKAPKLLMYAASNQGSGVPSRFSGSGSGTEFTLTISSLQPDDFATYYCQQTKEVPWSFGQGTKLEIK |  |  |  | 0 fold | Fold reduction in binding affinity vs 7-PP-1 WT [10]: 9.1 fold |
| BVX130 (bispecific antibody, bi-Fab; also called CD33-PP-1 WT/CD7-PP-6) heavy: QVQLQESGAELVKPGASVKLSCKASGYTFTSYWMHWVKQRPGQGLEWIGKINPSNGRTNYNEKFKSKATLTVDKSSSTAYMQLSSLTSEDSAVYYCARGGVYYALYYYALDYWGQGTTVTVSSASTKGPSVFPLAPSSKSTSGGTAALGCLVKDYFPEPVTVSWNSGALTSGVHTFPAVLQSSGLYSLSSVVTVPSSSLGTQTYCCNVNHKPSNTKVDKKVEPKSCDKT light: DIELTQSPATLSVTPGDSVSLSCRASQSISNNLHWYQQKSHESPRLLIKSASQSISGIPSRFSGSGSGTDFTLSINSVETEDFGMYFCQQSNSWPYTFGGGTKLEIKRTVAAPSVFIFPPSDEQLKSGTASVVCLLNNFYPREAKVQWKVDNALQSGNSQESVTEQDSKDSTYSLSSTLTLSKADYEKHKVYACEVTHQGLSSPVTKSFNRGEC VH: EVQLVQSGAEVKKPGSSVKVSCKASGYTITDSNIHWVRQAPGQSLEWIGYIYPYNGGTDYNQKFKNRATLTVDNPTNTAYMELSSLRSEDTAFYYCVNGNPWLAYWGQGTLVTVSS VL: DIQLTQSPSTLSASVGDRVTIICRASESLDNYGIRFLTWFQQKPGKAPKLLMYAASNQGSGVPSRFSGSGSGTEFTLTISSLQPDDFATYYCQQTKEVPWSFGQGTKLEIK |  |  |  | 0 fold | Fold reduction in binding affinity vs 7-PP-1 WT [11]: 12.7 fold |
| BVX140 (bispecific antibody, bi-Fab; also called CD33-PP-1 WT/CD7-PP-7) heavy: QVQLQESGAELVKPGASVKLSCKASGYTFTSYWMHWVKQRPGQGLEWIGKINPSNGGTNYNEKFKSKATLTVDKSSSTAYMQLSSLTSEDSAVYYCARGGVYYDLYYAALDYWGQGTTVTVSSASTKGPSVFPLAPSSKSTSGGTAALGCLVKDYFPEPVTVSWNSGALTSGVHTFPAVLQSSGLYSLSSVVTVPSSSLGTQTYCCNVNHKPSNTKVDKKVEPKSCDKT light: DIELTQSPATLSVTPGDSVSLSCRASQSISNNLHWYQQKSHESPRLLIKSASQSISGIPSRFSGSGSGTDFTLSINSVETEDFGMYFCQQSNSWPYTFGGGTKLEIKRTVAAPSVFIFPPSDEQLKSGTASVVCLLNNFYPREAKVQWKVDNALQSGNSQESVTEQDSKDSTYSLSSTLTLSKADYEKHKVYACEVTHQGLSSPVTKSFNRGEC VH: EVQLVQSGAEVKKPGSSVKVSCKASGYTITDSNIHWVRQAPGQSLEWIGYIYPYNGGTDYNQKFKNRATLTVDNPTNTAYMELSSLRSEDTAFYYCVNGNPWLAYWGQGTLVTVSS VL: DIQLTQSPSTLSASVGDRVTIICRASESLDNYGIRFLTWFQQKPGKAPKLLMYAASNQGSGVPSRFSGSGSGTEFTLTISSLQPDDFATYYCQQTKEVPWSFGQGTKLEIK |  |  |  | 0 fold | Fold reduction in binding affinity vs 7-PP-1 WT [12]: 152 fold |
